T1: recombinant human FLT3 (Homo sapiens, UniProt P36888)
T1 construct: purchased Sino Biological 10445-H08H
T1 sequence (P36888 27-541 limits assumed): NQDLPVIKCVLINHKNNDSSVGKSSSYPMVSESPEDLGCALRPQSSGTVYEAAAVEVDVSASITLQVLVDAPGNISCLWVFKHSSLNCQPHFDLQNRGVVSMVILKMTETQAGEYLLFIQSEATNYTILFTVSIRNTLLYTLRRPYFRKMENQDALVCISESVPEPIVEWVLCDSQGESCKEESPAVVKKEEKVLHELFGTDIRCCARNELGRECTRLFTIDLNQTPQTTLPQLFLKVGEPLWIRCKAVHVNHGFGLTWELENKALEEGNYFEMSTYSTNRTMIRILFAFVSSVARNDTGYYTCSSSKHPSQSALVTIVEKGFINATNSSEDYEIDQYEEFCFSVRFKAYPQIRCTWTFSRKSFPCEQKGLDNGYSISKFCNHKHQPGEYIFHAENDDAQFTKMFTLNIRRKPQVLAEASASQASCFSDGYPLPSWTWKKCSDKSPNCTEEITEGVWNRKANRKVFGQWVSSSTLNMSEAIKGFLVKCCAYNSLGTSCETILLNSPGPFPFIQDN

T2: Ba/F3 cells expressing human wildtype FLT3 (Homo sapiens, UniProt P36888)
T2 construct: expressed in transfected cells; host or cells: Ba/F3 cells, retrovirally transduced with MSCV-IRES-YFP (pMIY) vector
T2 sequence (P36888 27-993): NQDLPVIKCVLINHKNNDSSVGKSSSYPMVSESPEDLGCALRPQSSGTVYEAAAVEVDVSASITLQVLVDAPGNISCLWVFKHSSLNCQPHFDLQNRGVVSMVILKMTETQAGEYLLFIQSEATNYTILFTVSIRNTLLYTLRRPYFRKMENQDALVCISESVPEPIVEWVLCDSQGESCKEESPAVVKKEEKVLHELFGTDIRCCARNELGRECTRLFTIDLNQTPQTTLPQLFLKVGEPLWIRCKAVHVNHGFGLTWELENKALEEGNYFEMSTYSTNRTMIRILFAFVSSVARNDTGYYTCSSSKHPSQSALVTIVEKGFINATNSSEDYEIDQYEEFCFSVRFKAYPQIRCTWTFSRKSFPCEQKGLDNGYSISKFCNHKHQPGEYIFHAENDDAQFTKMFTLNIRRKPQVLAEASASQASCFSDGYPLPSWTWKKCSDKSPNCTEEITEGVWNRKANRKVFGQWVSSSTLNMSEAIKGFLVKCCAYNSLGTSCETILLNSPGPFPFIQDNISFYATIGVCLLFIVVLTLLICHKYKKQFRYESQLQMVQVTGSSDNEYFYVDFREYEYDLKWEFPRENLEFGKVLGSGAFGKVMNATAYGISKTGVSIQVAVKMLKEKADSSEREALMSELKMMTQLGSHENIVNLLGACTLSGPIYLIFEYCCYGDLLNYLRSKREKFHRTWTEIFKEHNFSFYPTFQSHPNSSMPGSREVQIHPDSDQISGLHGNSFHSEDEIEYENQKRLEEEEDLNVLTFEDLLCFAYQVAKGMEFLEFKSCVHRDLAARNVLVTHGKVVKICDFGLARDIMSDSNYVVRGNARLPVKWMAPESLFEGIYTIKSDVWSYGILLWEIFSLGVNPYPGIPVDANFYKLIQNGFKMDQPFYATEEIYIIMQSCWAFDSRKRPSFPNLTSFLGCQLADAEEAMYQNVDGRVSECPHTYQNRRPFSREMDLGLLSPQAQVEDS

B1: 19H5: chimeric anti-FLT3 antibody from rat; VH SEQ ID NO: 17, VL SEQ ID NO: 18 (antibody, V domains shown)
VH: MVQPSQTLSLTCTVSGFSLTSYNVNWVRQPPGKGLEWIGAMWRGGGTDYNPALKSRLSISRDTSKSQVFLKMNRLQTEDTAIYFCTRGFGDYWGQGVMVTVSSA
VL: DVQMTQSPSSMSASLGDRVTFTCQASQDIGNNLIYFQQKPGKSPRRMICCATNLAHGVPSRFSGSRSGSDYSLTLVSLESEDVADYHCLQYEHYPRTFGGGTKLELKR
modifications: Clone 19H5, heavy chain variable region without a signal seqeunce; Clone 19H5, light chain variable region without a signal seqeunce
B2: 2F12: chimeric anti-FLT3 antibody from rat; VH SEQ ID NO: 7, VL SEQ ID NO: 8 (antibody, V domains shown)
VH: EVKLEESGGGLVQPGGSMKLSCVASGFTFSNYWMNWVRQSPEKGLEWVAQIRLKSDNYATHYAESVKGRFTISRDDSKDSVYLQMNNLRAEDTGIYYCAVSLARSDYWGQGTTLTVSSA
VL: DVVMTQSPPSLSASLGDKVTITCQASQNINKYIAWYQQKPGKAPRLLIRYTSTLESGTPSRFSGSGSGRDFSFSISNVESEDIASYYCLQYVNLPRTFGGGTKLELKR
modifications: Clone 2F12, heavy chain variable region without a signal seqeunce; Clone 2F12, light chain variable region without a signal seqeunce

How the values were obtained:
recombinant human FLT3 = molecular target: T1, recombinant human FLT3; experiment: ELISA affinity to recombinant human FLT3; type: binding; details: chimeric Ab clones
Source text: FIG. 1: Evaluation of epitope specificity and internalization capability of anti-FLT3 monoclonal antibodies. (A) Affinity of seven anti-FLT3 monoclonal antibody (mab) clones to recombinant human FLT3 measured in enzyme-linked immunosorbent assay (ELISA) normalized to the binding of the antibodies to BSA control. […] (B) Schematic FLT3 receptor. Black arrows indicate common mutations and blue arrows indicate the three identified epitopes of seven anti-FLT3 antibodies analyzed in linear epitope mapping by PEPperPRINT. Figure was created with BioRender.com. (C) Binding and temperature induced internalization of anti-FLT3 antibodies in Ba/F3 cells expressing human wildtype FLT3. Internalization was induced by incubation for 30 min at 37° C. (grey) compared to 4° C. (black). Remaining surface-bound antibody was detected in flow cytometry. MFI was normalized to control human IgG1 binding. MFI=mean fluorescence intensity. […] (D) Cell surface binding of 20D9 mab or control human IgG1 antibody to Ba/F3 cells stably expressing pMIY (Ba/F3-pMIY) empty vector (ev), human wildtype (hFLT3 wt) or ITD mutant human FLT3 (hFLT3ITD) was measured in flow cytometry. Mean±s.d. of n=3. (E) Temperature induced internalization of 4B12 mab in MOLM-13 (FLT3 positive) cells after 30 min incubation at 37° C. compared to 4° C. and HL-60 (FLT3 negative) after 37° C. incubation assessed in immunofluorescence staining. Red=FLT3 staining by 4B12, Green=membrane staining by Vybrant DiO, Blue=nuclear staining by DAPI. Scale bar 5 μm. Representative pictures are shown. (F) Cell surface binding of 20D9 mab or control hIgG1 antibody to Ba/F3-pMIY ev, hFLT3 wt, murine (mFLT3 wt) or cynomolgues monkey FLT3 (cynoFLT3 wt) was measured in flow cytometry. Mean±s.d. of n=3. (G) Cell surface binding of 20D9 mab or control hIgG1 antibody to Ba/F3-PMIY ev, hFLT3 wt or epitope mutant FLT3 (hFLT3/S50P/P54R) measured in flow cytometry. Mean±s.d. of n=3. (H) Cell surface binding of 20D9 mab or control hIgG1 antibody to Ba/F3-PMIY ev, hFLT3 wt or human CD64 (hCD64) measured in flow cytometry. Mean±s.d. of n=3.
Maxisorp plates were coated with human recombinant FLT3 protein (10445-H08H, Sino Biological). Chimeric (20D9) or humanized anti-FLT3 monoclonal antibodies (in house) and secondary alkaline phosphatase conjugated rabbit anti-human IgG antibody (309-055-008, Jackson Immunoresearch) were used. For detection, Attophos Fluorescent Substrate System (S1000, Promega) was applied. The fluorescence was read with excitation of 405 nm and emission at 500-550 nm. The calculation of the dissociation constant KD was performed using GraphPad Prism version 9.4.0.

[1] = tested on: MOLM-13 (FLT3 positive) cells; experiment: Temperature induced internalization in MOLM-13, flow cytometry; type: cell-based, human; details: 30 min at 37° C. compared to 4° C.
Protocol: For antibody binding studies, cells were stained on ice with primary mouse, rat or human anti-FLT3 antibodies (in house) and secondary antibody Goat F(ab′)2 Anti-Human Ig-PE (2012-09), Goat Anti-Mouse IgG (H+L)-PE (1032-09) or Goat Anti-Rat IgG (H+L)-PE (3052-09) purchased from Southern Biotech. For internalization experiments, cells incubated with anti-FLT3 antibodies were washed and incubated for 30 min at 4° C. or 37° C. followed by staining with secondary antibody.

[2] = molecular target: T2, Ba/F3 cells expressing human wildtype FLT3; experiment: Temperature induced internalization in Ba/F3-FLT3, flow cytometry; type: cell-based; details: 30 min at 37° C. compared to 4° C.
Source text: FIG. 1: Evaluation of epitope specificity and internalization capability of anti-FLT3 monoclonal antibodies. (A) Affinity of seven anti-FLT3 monoclonal antibody (mab) clones to recombinant human FLT3 measured in enzyme-linked immunosorbent assay (ELISA) normalized to the binding of the antibodies to BSA control. […] (B) Schematic FLT3 receptor. Black arrows indicate common mutations and blue arrows indicate the three identified epitopes of seven anti-FLT3 antibodies analyzed in linear epitope mapping by PEPperPRINT. Figure was created with BioRender.com. (C) Binding and temperature induced internalization of anti-FLT3 antibodies in Ba/F3 cells expressing human wildtype FLT3. Internalization was induced by incubation for 30 min at 37° C. (grey) compared to 4° C. (black). Remaining surface-bound antibody was detected in flow cytometry. MFI was normalized to control human IgG1 binding. MFI=mean fluorescence intensity. […] (D) Cell surface binding of 20D9 mab or control human IgG1 antibody to Ba/F3 cells stably expressing pMIY (Ba/F3-pMIY) empty vector (ev), human wildtype (hFLT3 wt) or ITD mutant human FLT3 (hFLT3ITD) was measured in flow cytometry. Mean±s.d. of n=3. (E) Temperature induced internalization of 4B12 mab in MOLM-13 (FLT3 positive) cells after 30 min incubation at 37° C. compared to 4° C. and HL-60 (FLT3 negative) after 37° C. incubation assessed in immunofluorescence staining. Red=FLT3 staining by 4B12, Green=membrane staining by Vybrant DiO, Blue=nuclear staining by DAPI. Scale bar 5 μm. Representative pictures are shown. (F) Cell surface binding of 20D9 mab or control hIgG1 antibody to Ba/F3-pMIY ev, hFLT3 wt, murine (mFLT3 wt) or cynomolgues monkey FLT3 (cynoFLT3 wt) was measured in flow cytometry. Mean±s.d. of n=3. (G) Cell surface binding of 20D9 mab or control hIgG1 antibody to Ba/F3-PMIY ev, hFLT3 wt or epitope mutant FLT3 (hFLT3/S50P/P54R) measured in flow cytometry. Mean±s.d. of n=3. (H) Cell surface binding of 20D9 mab or control hIgG1 antibody to Ba/F3-PMIY ev, hFLT3 wt or human CD64 (hCD64) measured in flow cytometry. Mean±s.d. of n=3. […]

| Molecule | Affinity Kd (recombinant human FLT3) | Internalization in MOLM-13 [1] | Internalization in Ba/F3-FLT3 [2] |
| --- | --- | --- | --- |
| B1 | 0.1339 µg/mL | – | – |
| B2 | 3.981 µg/mL | 12% | 26% |

Reference: patent publication US20250049939A1, “NOVEL FLT3 ANTIBODIES AND ANTIBODY-DRUG-CONJUGATES BASED THEREON, THERAPEUTIC METHODS AND USES THEREOF IN COMBINATION WITH TYROSINE KINASE INHIBITORS” (TUBULIS GmbH, priority 2021, published 2025)
